Assay results taken from US20250215104A1 (WALDEN BIOSCIENCES, published 2025).
Substitutions are numbered along the chain they refer to.

Tests used:
[1] = target: T1, human soluble urokinase plasminogen activator receptor (suPAR) (human, UniProt Q03405 23-303, limits assumed); assay: BLI (Octet) off-rate screen of scFv clones
T1 construct: Target antigen of the scFv off-rate screen; also called hsuPAR; human suPAR

[2] = target: T2, cynomolgus soluble urokinase plasminogen activator receptor (suPAR) (cynomolgus, UniProt Q9GK78 23-303, limits assumed); assay: BLI (Octet) off-rate screen of scFv clones
T2 construct: Target antigen of the scFv off-rate screen; also called cynomolgus suPAR; cynomolgus uPAR
T2 sequence (Q9GK78 23-303 limits assumed): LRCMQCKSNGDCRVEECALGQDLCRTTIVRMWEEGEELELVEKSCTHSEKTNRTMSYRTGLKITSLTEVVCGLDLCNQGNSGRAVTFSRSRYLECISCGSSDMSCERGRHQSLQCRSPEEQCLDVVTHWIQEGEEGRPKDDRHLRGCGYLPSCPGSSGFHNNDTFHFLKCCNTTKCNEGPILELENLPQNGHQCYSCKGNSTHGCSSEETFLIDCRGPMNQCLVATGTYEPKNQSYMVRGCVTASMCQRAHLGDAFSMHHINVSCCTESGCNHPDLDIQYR

T1 sequence (Q03405 23-303 limits assumed): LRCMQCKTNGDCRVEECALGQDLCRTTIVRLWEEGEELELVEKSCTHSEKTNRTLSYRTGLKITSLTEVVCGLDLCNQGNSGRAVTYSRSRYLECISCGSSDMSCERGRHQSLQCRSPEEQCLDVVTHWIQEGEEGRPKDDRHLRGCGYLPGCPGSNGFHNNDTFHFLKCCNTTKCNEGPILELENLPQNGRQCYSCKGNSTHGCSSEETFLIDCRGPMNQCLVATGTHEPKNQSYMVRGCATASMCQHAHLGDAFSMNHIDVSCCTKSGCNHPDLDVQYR

B1: suPAR_DB06_B12 (scFv, V domains shown)
VH: QVQLVQSGAEVKKPGASVKVSCKASGYTFTNYYMHWVRQAPGQGLEWMGWIDPEGGNTIYDQKFQGRVTMTRDTSTSTVYMELSSLRSEDTAVYYCARGYDVDWFVYWGQGTLVTVSS
VL: DIQMTQSPSSLSASVGDRVTITCSARSSVSYMYWYQQKPGKAPKLLIYRTSNLASGVPSRFSGSGSGTDFTLTISSLQPEDFATYYCQQYHSYPPTFGGGTKVEIK
koff [1]: 0.00203 s⁻¹ | koff [2]: 0.000293 s⁻¹

B2: suPAR_DB06_D07 (scFv, V domains shown)
VH: B1 VH with P53H, D61A
VL: B1 VL
koff [1]: 0.00244 s⁻¹ | koff [2]: 0.000565 s⁻¹

B3: suPAR_DB06_F06 (scFv, V domains shown)
VH: B1 VH with Y27G, T30I, N31G, Y32H, M34V, P53H, G55N
VL: B1 VL
koff [1]: 0.00331 s⁻¹ | koff [2]: 0.00055 s⁻¹

B4: suPAR_DB06_D11 (scFv, V domains shown)
VH: B1 VH with T30A, M34V, M48V, W50M, E54G, N57T, I59N, D61A
VL: B1 VL with S24R, S27Q
koff [1]: 0.0021 s⁻¹ | koff [2]: 0.000439 s⁻¹

B5: suPAR_DB06_E03 (scFv, V domains shown)
VH: B1 VH with Y27F, T28N, F29I, T30K, N31D, M34I, G55N, I59S
VL: B1 VL
koff [1]: 0.00201 s⁻¹ | koff [2]: 0.00037 s⁻¹

B6: suPAR_DB06_E08 (scFv, V domains shown)
VH: B1 VH with T28G, N31D, P53H, E54S, D61A
VL: B1 VL with S27Q
koff [1]: 0.00335 s⁻¹ | koff [2]: 2.02e-05 s⁻¹

B7: suPAR_DB06_D05 (scFv, V domains shown)
VH: B1 VH with Y27G, N31G, E54S
VL: B1 VL with S27Q
koff [1]: 0.00558 s⁻¹ | koff [2]: 0.000222 s⁻¹

B8: suPAR_DB06_C06 (scFv, V domains shown)
VH: B1 VH with T30S, P53H, I59S, D61A
VL: B1 VL
koff [1]: 0.00311 s⁻¹ | koff [2]: 0.00025 s⁻¹

B9: suPAR_DB06_F09 (scFv, V domains shown)
VH: B1 VH with N31T
VL: B1 VL with R26S, S27Q
koff [1]: 0.00302 s⁻¹ | koff [2]: 0.000353 s⁻¹

B10: suPAR_DB06_E04 (scFv, V domains shown)
VH: B1 VH with Y27D, T30S, N31S, P53H, G55N, V102M
VL: B1 VL with S24R, A54Q
koff [1]: 0.00541 s⁻¹ | koff [2]: 0.000388 s⁻¹

B11: suPAR_DB06_D10 (scFv, V domains shown)
VH: B1 VH with N31S, G55N, D61A
VL: B1 VL
koff [1]: 0.00425 s⁻¹ | koff [2]: 0.000365 s⁻¹

B12: suPAR_DB06_E02 (scFv, V domains shown)
VH: B1 VH with T28S, P53H, G55N
VL: B1 VL
koff [1]: 0.00189 s⁻¹ | koff [2]: 0.000589 s⁻¹

B13: suPAR_DB06_G01 (scFv, V domains shown)
VH: B1 VH with Y27D, N31G, P53H, G55N, N57S, D61A
VL: B1 VL
koff [1]: 0.00148 s⁻¹ | koff [2]: 0.000134 s⁻¹

B14: suPAR_DB06_F03 (scFv, V domains shown)
VH: B1 VH with T28S, P53H, G55N, Y100N
VL: B1 VL with R26S, S27Q
koff [1]: 0.004 s⁻¹ | koff [2]: 0.00059 s⁻¹

B15: suPAR_DB06_E11 (scFv, V domains shown)
VH: B1 VH with N31G, P53H, G55N, D61A
VL: B1 VL with R26S
koff [1]: 0.00118 s⁻¹ | koff [2]: 0.000723 s⁻¹

B16: suPAR_DB06_D09 (scFv, V domains shown)
VH: B1 VH with Y27G, N31S, P53H, G55N, N57S, D61A
VL: B1 VL with R26S
koff [1]: 0.00149 s⁻¹ | koff [2]: 0.000341 s⁻¹

B17: suPAR_DB06_F05 (scFv, V domains shown)
VH: B1 VH with Y27D, T28S, N31G, M34I, P53H, G55N
VL: B1 VL
koff [1]: 0.00531 s⁻¹ | koff [2]: 3.1e-07 s⁻¹

B18: suPAR_DB06_G02 (scFv, V domains shown)
VH: B1 VH with T28N, F29I, N31D, M34I, G55N, N57S
VL: B1 VL with S24R
koff [1]: 0.00384 s⁻¹ | koff [2]: 0.000375 s⁻¹

B19: suPAR_DB06_E09 (scFv, V domains shown)
VH: B1 VH with Y27H, M34V, P53H, G55N, N57S, I59S
VL: B1 VL
koff [1]: 0.00316 s⁻¹ | koff [2]: 0.000301 s⁻¹

B20: suPAR_DB06_C09 (scFv, V domains shown)
VH: B1 VH with N31S, G55N
VL: B1 VL with S24R
koff [1]: 0.00382 s⁻¹ | koff [2]: 0.000566 s⁻¹

B21: suPAR_DB06_C03 (scFv, V domains shown)
VH: B1 VH with N31S, E54N, G55S, N57G, I59N, D61A
VL: B1 VL
koff [1]: 0.00347 s⁻¹ | koff [2]: 0.000332 s⁻¹

B22: suPAR_DB06_C11 (scFv, V domains shown)
VH: B1 VH with P53H, G55N
VL: B1 VL with S27Q
koff [1]: 0.00201 s⁻¹ | koff [2]: 0.000631 s⁻¹

B23: suPAR_DB06_F08 (scFv, V domains shown)
VH: B1 VH with N31G, Y32N, M34V, P53H, E54S, G55N
VL: B1 VL
koff [1]: 0.00174 s⁻¹ | koff [2]: 0.000537 s⁻¹

B24: suPAR_DB06_C01 (scFv, V domains shown)
VH: B1 VH with N31G, E54S, G55N
VL: B1 VL with S27Q, V29I
koff [1]: 0.00233 s⁻¹ | koff [2]: 1.49e-05 s⁻¹

B25: suPAR_DB06_F01 (scFv, V domains shown)
VH: B1 VH with Y27G, N31S, M34V, I59S
VL: B1 VL
koff [1]: 0.00305 s⁻¹ | koff [2]: 0.000197 s⁻¹

B26: suPAR_DB06_F02 (scFv, V domains shown)
VH: B1 VH with P53H, G55N, N57S, I59S
VL: B1 VL with S24R, S27Q
koff [1]: 0.00157 s⁻¹ | koff [2]: 0.000258 s⁻¹

B27: suPAR_DB06_D02 (scFv, V domains shown)
VH: B1 VH with N31S, Y32N, P53H, G55N
VL: B1 VL with R26S
koff [1]: 0.00422 s⁻¹ | koff [2]: 0.00023 s⁻¹

B28: suPAR_DB06_C12 (scFv, V domains shown)
VH: B1 VH with T28S, N31A, Y32N, M34I, P53H, G55N, R98N
VL: B1 VL
koff [1]: 0.00484 s⁻¹ | koff [2]: 7.52e-05 s⁻¹

B29: suPAR_DB06_E10 (scFv, V domains shown)
VH: B1 VH with Y27D, T30I, N31S, G55N
VL: B1 VL
koff [1]: 0.00526 s⁻¹ | koff [2]: 0.000271 s⁻¹

B30: suPAR_DB06_F12 (scFv, V domains shown)
VH: B1 VH with T30S, N31S, G55N, D61A
VL: B1 VL with S24R, S27Q
koff [1]: 0.00426 s⁻¹ | koff [2]: 0.000195 s⁻¹

B31: suPAR_DB06_F04 (scFv, V domains shown)
VH: B1 VH with T28R, N31S, G55N, D61A
VL: B1 VL with S27Q
koff [1]: 0.00574 s⁻¹ | koff [2]: 0.000315 s⁻¹

B32: suPAR_DB06_E07 (scFv, V domains shown)
VH: B1 VH with M34L, E54H, G55S, N57G, I59N, D61A, R98S
VL: B1 VL
koff [1]: 0.00497 s⁻¹ | koff [2]: 0.000388 s⁻¹

B33: suPAR_DB06_D06 (scFv, V domains shown)
VH: B1 VH with G55N, D61A
VL: B1 VL
koff [1]: 0.00406 s⁻¹ | koff [2]: 0.000261 s⁻¹

B34: suPAR_DB06_C10 (scFv, V domains shown)
VH: B1 VH with T30S, N31A, E54S, G55N
VL: B1 VL
koff [1]: 0.00599 s⁻¹ | koff [2]: 0.00048 s⁻¹

B35: suPAR_DB06_D08 (scFv, V domains shown)
VH: B1 VH with I59S
VL: B1 VL
koff [1]: 0.00166 s⁻¹ | koff [2]: 0.000715 s⁻¹

B36: suPAR_DB06_D12 (scFv, V domains shown)
VH: B1 VH with Y27G, T30S, N31S, G55N, D61A
VL: B1 VL with S27Q, N52S
koff [1]: 0.00515 s⁻¹ | koff [2]: 0.000189 s⁻¹

B37: suPAR_DB06_F11 (scFv, V domains shown)
VH: B1 VH with P53H, G55N, N57S, D61A
VL: B1 VL with A54Q
koff [1]: 0.000947 s⁻¹ | koff [2]: 0.00059 s⁻¹

B38: suPAR_DB06_C07 (scFv, V domains shown)
VH: B1 VH with E54N, N57G, I59Q, D61A
VL: B1 VL
koff [1]: 0.00495 s⁻¹ | koff [2]: 0.000387 s⁻¹

B39: suPAR_DB06_E06 (scFv, V domains shown)
VH: B1 VH with Y27D, F29S, N31S, P53H, G55N, N57S
VL: B1 VL
koff [1]: 0.00135 s⁻¹ | koff [2]: 0.000319 s⁻¹

B40: suPAR_DB06_E12 (scFv, V domains shown)
VH: B1 VH with N31S, P53H, G55N, I59S, D61A
VL: B1 VL with S24R
koff [1]: 0.00373 s⁻¹ | koff [2]: 0.000164 s⁻¹

B41: suPAR_DB06_E05 (scFv, V domains shown)
VH: B1 VH with N31S, Y32H, M34I, H35Q, P53H, G55N, Y100T
VL: B1 VL
koff [1]: 0.00315 s⁻¹ | koff [2]: 0.000905 s⁻¹
